Laboratory results published in the DeepSol protein solubility set.

Assay: soluble on expression in E. coli; label from the status in PepcDB or PDB records

Row | Sequence | soluble on expression in E. coli
1 | MGSDKIHHHHHHMTPAAVGQLVRTLEDWLGFPLFHRQTNGKNRLVATELAESVLPDIRAGFDKLTLALEKLKQDSLSGVLNIAVSPAFAEKWLLPRIDHFQKQYPDIDIRLDINLKTVDFLEQKVDVGVRYGQGQWQGLEAVKLMDEEVYPVCSPAFLNEHSFLLTPNDLKNITLIHDLSMEKHQQFPGWQSWLKSVGLNDINISRGMQINSSSAVLQAAMEGHGVALARSVMVQKDIQTGRLIRLFPQINFSSPFSYYLVYRPQYANLPKVKICLDWFFEEIHRI | not soluble
2 | ESSVNPVVLDFEDGTVMSFGEAWGDSLKCIKKVSVSQDLQRPGNKYALRLDVEFNPNNGWDQGDLGTWIGGVVEGQFDFTGYKSVEFEMFIPYDEFSKSQGGFAYKVVINDGWKELGSEFNITANAGKKVKINGKDYTVIHKAFAIPEDFRTKKRAQLVFQFAGQNSNYKGPIYLDNVRIRPEDA | soluble
3 | GPGSMPKSKRATIVPLTKTRSKTREEKDELINKIRDALDDYTDVYTFELSNIRTNILQQIREERRNDSRLFLGNNKLLMIALGRDDSSSQRPNLHKLSKYLTGSCGLLFTNLPHQDVKEYFKGVSADVFARTGQVATCPLLLRTGPLAQFPHSMFDHLSRLGLPIKLDKGVIVLLRDTTVCEVGDTLTAEAAQLLKLFGIQSAEFKLELTAHWAKGVVKRMSKKKKEEEN | soluble
4 | MGSDKIHHHHHHMYRKDLDHYLKQRLPKAVFLYGEFDFFIHYYIQTISALFKCDNPDIETSLFYASDYEKSQIATLLEQDSLFGGSSLVVLKLDFALHKKFKENDINLFLKALERPSHNRLIIGLYNAKSDTTKYKYTSDAIVKFFQKSPLKDEAICARFFIPKTWESLKFLQERANFLHLDISGHLLNALFEINNEDLGVSFNDLDKLAVLNAPITLEDIQELSSNAGDMDLQKLILGLFLKKSALDIYDYLLKEGKKDADILRGLERYFYQLFLFFAHIKTTGLMDAKEVLGYAPPKEIAENYAKNALRLKEAGYKRVFEIFRLWHIQSMQGQKELGFLYLTSIQKIINP | not soluble
5 | MGSSHHHHHHSSGLGPGGSHMASMSDSEVNQEAKPEVKPEVKPETHINLKVSDGSSEIFFKIKKTTPLRRLMEAFAKRQGKEMDSLRFLYDGIRIQADQTPEDLDMEDNDIIEAHREQIGGSLGRACKYENPARWSEQEQAIKGVYSSWVTDNILAMARPSSELLEKYHIIDQFLSHGIKTIINLQRPGEHASCGNPLEQESGFTYLPEAFMEAGIYFYNFGWKDYGVASLTTILDMVKVMTFALQEGKVAIHCHAGLGRTGVLIACYLVFATRMTADQAIIFVRAKRPNSIQTRGQLLCVREFTQFLTPLRNIFSEGHHHHHH | soluble
6 | MSLNKTNYNNIISINQQREFVLFQNIQKECPLLVVFDLDDTLIHTHINTNNLCINSSDIFTIRVNEIKYYCEVRKGVVETLERLSKQFRIMIYTASKKEYADQVVSHLEKNCKLFSKILYREDCLEEEGFIYKTIHNINYNVKRIICIDDNPSAWKKLENVYVCKKYNGGIDDEMIDIEKTFIKCCILCFLFVEGHHHHHH | soluble
7 | TPSRVEAFDNSNIHGTDPVSAMVTFLDGKPSKNDYRKYKIKTVEGPDDYATMREVIRRRYWRVLKEGLPMPDLILIDGGKGQIDSAKDVLTNELGLDIPVAGLAKDDKHRTSQLLFGDPLEIVPLERNSQEFYLLQRMQDEVHRFAITFHRQLRSKTGFQSILDGIPG | not soluble
8 | MSLKTPLKDEVFSFIDLETTGSCPIKHEILEIGAVQVKGGEIINRFETLVKVKSVPDYIAELTGITYEDTLNAPSAHEALQELRLFLGNSVFVAHNANFDYNFLGRYFVEKLHCPLLNLKLCTLDLSKRAILSMRYSLSFLKELLGFGIEVSHRAYADALASYKLFEICLLNLPSYIKTTMDLIDEGHHHHHH | not soluble
